According to publication PMC11638070:

Target: mitochondrial heat shock protein 60, wild type (mtHsp60) (human), P10809
Experiment: SEC; analytical SEC of each protein alone (mtHsp60 samples 17 µM monomer); Superdex 200 Increase 3.2/300, room temperature, 20 mM HEPES pH 7.5, 100 mM KCl, 10 mM MgCl2
Conditions: remark: other sources report otherwise

stoichiometry N: 7
B1: mitochondrial heat shock protein 60, wild type (mtHsp60), P10809 27-573 (natural protein)
chain: AKDVKFGADARALMLQGVDLLADAVAVTMGPKGRTVIIEQSWGSPKVTKDGVTVAKSIDLKDKYKNIGAKLVQDVANNTNEEAGDGTTTATVLARSIAKEGFEKISKGANPVEIRRGVMLAVDAVIAELKKQSKPVTTPEEIAQVATISANGDKEIGNIISDAMKKVGRKGVITVKDGKTLNDELEIIEGMKFDRGYISPYFINTSKGQKCEFQDAYVLLSEKKISSIQSIVPALEIANAHRKPLVIIAEDVDGEALSTLVLNRLKVGLQVVAVKAPGFGDNRKNQLKDMAIATGGAVFGEEGLTLNLEDVQPHDLGKVGEVIVTKDDAMLLKGKGDKAQIEKRIQEIIEQLDVTTSEYEKEKLNERLAKLSDGVAVLKVGGTSDVEVNEKKDRVTDALNATRAAVEEGIVLGGGCALLRCIPALDSLTPANEDQKIGIEIIKRTLKIPAMTIAKNAGVEGSLIVEKIMQSSSEVGYDAMAGDFVNMVEKGIIDPTKVVRTALLDAAGVASLLTTAEVVVTEIPKEEKDPGMGAMGGMGGGMGGGMF
